# Legend:
# [1] = target: deuterated green fluorescent protein [GFP: P42212]; assay: small-angle neutron scattering (SANS); free protein in solution, about 5 mg/mL in Tris-buffer, h-GFP in D2O and d-GFP in H2O, 2-mm quartz cells, ambient conditions; Rg, P(r) and DAMMIF ab initio reconstruction
# [2] = target: hydrogenated green fluorescent protein [GFP: P42212]; assay: as above
Substance,stoichiometry N [1],stoichiometry N [2]
deuterated green fluorescent protein (from UniProt P42212 2-238) (natural protein),2,–
hydrogenated green fluorescent protein (from UniProt P42212 2-238) (natural protein),–,2

# Source: article PMC9944321
